In patent US20250171562A1:

B1: CIgG4F5A1(RS) (Fc fusion)
chain 1: GPPCPPCPAPEFLGGPSVFLFPPKPKDTLMISRTPEVTCVVVDVSQEDPEVQFNWYVDGVEVHNAKTKPREEQFNSTYRVVSVLTVLHQDWLNGKEYKCKVSNKGLPSSIEKTISKAKGQPREPQVYTLPPCQEEMTKNQVSLWCLVKGFYPSDIAVEWESNGQPENNYKTTPPVLDSDGSFFLYSRLTVDKSRWQEGNVFSCSVMHEALHNHYTQKSLSLSLGKRSDVQLQESGGGLVQPGGSLRLSCAASGSIFSIDIMGWYRQAPGKQRELVATMPEGNYINYADSVKGRLTLSRDKGKNTVYLQLNSLKPEDTAVYYCYGFGVREGRGNVYWGQGTQVTVS
chain 2: GPPCPPCPAPEFLGGPSVFLFPPKPKDTLMISRTPEVTCVVVDVSQEDPEVQFNWYVDGVEVHNAKTKPREEQFNSTYRVVSVLTVLHQDWLNGKEYKCKVSNKGLPSSIEKTISKAKGQPREPQVCTLPPSQEEMTKNQVSLSCAVKGFYPSDIAVEWESNGQPENNYKTTPPVLDSDGSFFLVSRLTVDKSRWQEGNVFSCSVMHEALHNHYTQKSLSLSLGKRSEVQLLESGGGLVQPGGSLRLSCAASGFTFGNYDMAWVRQAPGKRPEWVSSIDTGGDITHYADSVKGRFTISRDNAKNTLYLQMNSLRPEDTAVYWCATDEEYALGPNEFDYYGQGTLVTVSS
B2: NIgG4F5A1(RS) (Fc fusion)
chain 1: DVQLQESGGGLVQPGGSLRLSCAASGSIFSIDIMGWYRQAPGKQRELVATMPEGNYINYADSVKGRLTLSRDKGKNTVYLQLNSLKPEDTAVYYCYGFGVREGRGNVYWGQGTQVTVSRSGPPCPPCPAPEFLGGPSVFLFPPKPKDTLMISRTPEVTCVVVDVSQEDPEVQFNWYVDGVEVHNAKTKPREEQFNSTYRVVSVLTVLHQDWLNGKEYKCKVSNKGLPSSIEKTISKAKGQPREPQVYTLPPCQEEMTKNQVSLWCLVKGFYPSDIAVEWESNGQPENNYKTTPPVLDSDGSFFLYSRLTVDKSRWQEGNVFSCSVMHEALHNHYTQKSLSLSLGK
chain 2: EVQLLESGGGLVQPGGSLRLSCAASGFTFGNYDMAWVRQAPGKRPEWVSSIDTGGDITHYADSVKGRFTISRDNAKNTLYLQMNSLRPEDTAVYWCATDEEYALGPNEFDYYGQGTLVTVSSRSGPPCPPCPAPEFLGGPSVFLFPPKPKDTLMISRTPEVTCVVVDVSQEDPEVQFNWYVDGVEVHNAKTKPREEQFNSTYRVVSVLTVLHQDWLNGKEYKCKVSNKGLPSSIEKTISKAKGQPREPQVCTLPPSQEEMTKNQVSLSCAVKGFYPSDIAVEWESNGQPENNYKTTPPVLDSDGSFFLVSRLTVDKSRWQEGNVFSCSVMHEALHNHYTQKSLSLSLGK
B3: NIgG4F5A1(G4S)3 (Fc fusion)
chain 1: DVQLQESGGGLVQPGGSLRLSCAASGSIFSIDIMGWYRQAPGKQRELVATMPEGNYINYADSVKGRLTLSRDKGKNTVYLQLNSLKPEDTAVYYCYGFGVREGRGNVYWGQGTQVTVSGGGGSGGGGSGGGGSGPPCPPCPAPEFLGGPSVFLFPPKPKDTLMISRTPEVTCVVVDVSQEDPEVQFNWYVDGVEVHNAKTKPREEQFNSTYRVVSVLTVLHQDWLNGKEYKCKVSNKGLPSSIEKTISKAKGQPREPQVYTLPPCQEEMTKNQVSLWCLVKGFYPSDIAVEWESNGQPENNYKTTPPVLDSDGSFFLYSRLTVDKSRWQEGNVFSCSVMHEALHNHYTQKSLSLSLGK
chain 2: EVQLLESGGGLVQPGGSLRLSCAASGFTFGNYDMAWVRQAPGKRPEWVSSIDTGGDITHYADSVKGRFTISRDNAKNTLYLQMNSLRPEDTAVYWCATDEEYALGPNEFDYYGQGTLVTVSSGGGGSGGGGSGGGGSGPPCPPCPAPEFLGGPSVFLFPPKPKDTLMISRTPEVTCVVVDVSQEDPEVQFNWYVDGVEVHNAKTKPREEQFNSTYRVVSVLTVLHQDWLNGKEYKCKVSNKGLPSSIEKTISKAKGQPREPQVCTLPPSQEEMTKNQVSLSCAVKGFYPSDIAVEWESNGQPENNYKTTPPVLDSDGSFFLVSRLTVDKSRWQEGNVFSCSVMHEALHNHYTQKSLSLSLGK
B4: NIgG4F5A1(G4S)2 (Fc fusion)
chain 1: DVQLQESGGGLVQPGGSLRLSCAASGSIFSIDIMGWYRQAPGKQRELVATMPEGNYINYADSVKGRLTLSRDKGKNTVYLQLNSLKPEDTAVYYCYGFGVREGRGNVYWGQGTQVTVSGGGGSGGGGSGPPCPPCPAPEFLGGPSVFLFPPKPKDTLMISRTPEVTCVVVDVSQEDPEVQFNWYVDGVEVHNAKTKPREEQFNSTYRVVSVLTVLHQDWLNGKEYKCKVSNKGLPSSIEKTISKAKGQPREPQVYTLPPCQEEMTKNQVSLWCLVKGFYPSDIAVEWESNGQPENNYKTTPPVLDSDGSFFLYSRLTVDKSRWQEGNVFSCSVMHEALHNHYTQKSLSLSLGK
chain 2: EVQLLESGGGLVQPGGSLRLSCAASGFTFGNYDMAWVRQAPGKRPEWVSSIDTGGDITHYADSVKGRFTISRDNAKNTLYLQMNSLRPEDTAVYWCATDEEYALGPNEFDYYGQGTLVTVSSGGGGSGGGGSGPPCPPCPAPEFLGGPSVFLFPPKPKDTLMISRTPEVTCVVVDVSQEDPEVQFNWYVDGVEVHNAKTKPREEQFNSTYRVVSVLTVLHQDWLNGKEYKCKVSNKGLPSSIEKTISKAKGQPREPQVCTLPPSQEEMTKNQVSLSCAVKGFYPSDIAVEWESNGQPENNYKTTPPVLDSDGSFFLVSRLTVDKSRWQEGNVFSCSVMHEALHNHYTQKSLSLSLGK
B5: NIgG4F5A1(G4S)1 (Fc fusion)
chain 1: DVQLQESGGGLVQPGGSLRLSCAASGSIFSIDIMGWYRQAPGKQRELVATMPEGNYINYADSVKGRLTLSRDKGKNTVYLQLNSLKPEDTAVYYCYGFGVREGRGNVYWGQGTQVTVSGGGGSGPPCPPCPAPEFLGGPSVFLFPPKPKDTLMISRTPEVTCVVVDVSQEDPEVQFNWYVDGVEVHNAKTKPREEQFNSTYRVVSVLTVLHQDWLNGKEYKCKVSNKGLPSSIEKTISKAKGQPREPQVYTLPPCQEEMTKNQVSLWCLVKGFYPSDIAVEWESNGQPENNYKTTPPVLDSDGSFFLYSRLTVDKSRWQEGNVFSCSVMHEALHNHYTQKSLSLSLGK
chain 2: EVQLLESGGGLVQPGGSLRLSCAASGFTFGNYDMAWVRQAPGKRPEWVSSIDTGGDITHYADSVKGRFTISRDNAKNTLYLQMNSLRPEDTAVYWCATDEEYALGPNEFDYYGQGTLVTVSSGGGGSGPPCPPCPAPEFLGGPSVFLFPPKPKDTLMISRTPEVTCVVVDVSQEDPEVQFNWYVDGVEVHNAKTKPREEQFNSTYRVVSVLTVLHQDWLNGKEYKCKVSNKGLPSSIEKTISKAKGQPREPQVCTLPPSQEEMTKNQVSLSCAVKGFYPSDIAVEWESNGQPENNYKTTPPVLDSDGSFFLVSRLTVDKSRWQEGNVFSCSVMHEALHNHYTQKSLSLSLGK
B6: CIgG4F5A1(G4S)1 (Fc fusion)
chain 1: GPPCPPCPAPEFLGGPSVFLFPPKPKDTLMISRTPEVTCVVVDVSQEDPEVQFNWYVDGVEVHNAKTKPREEQFNSTYRVVSVLTVLHQDWLNGKEYKCKVSNKGLPSSIEKTISKAKGQPREPQVYTLPPCQEEMTKNQVSLWCLVKGFYPSDIAVEWESNGQPENNYKTTPPVLDSDGSFFLYSRLTVDKSRWQEGNVFSCSVMHEALHNHYTQKSLSLSLGKGGGGSDVQLQESGGGLVQPGGSLRLSCAASGSIFSIDIMGWYRQAPGKQRELVATMPEGNYINYADSVKGRLTLSRDKGKNTVYLQLNSLKPEDTAVYYCYGFGVREGRGNVYWGQGTQVTVS
chain 2: GPPCPPCPAPEFLGGPSVFLFPPKPKDTLMISRTPEVTCVVVDVSQEDPEVQFNWYVDGVEVHNAKTKPREEQFNSTYRVVSVLTVLHQDWLNGKEYKCKVSNKGLPSSIEKTISKAKGQPREPQVCTLPPSQEEMTKNQVSLSCAVKGFYPSDIAVEWESNGQPENNYKTTPPVLDSDGSFFLVSRLTVDKSRWQEGNVFSCSVMHEALHNHYTQKSLSLSLGKGGGGSEVQLLESGGGLVQPGGSLRLSCAASGFTFGNYDMAWVRQAPGKRPEWVSSIDTGGDITHYADSVKGRFTISRDNAKNTLYLQMNSLRPEDTAVYWCATDEEYALGPNEFDYYGQGTLVTVSS

molecular target: mixture of three Der p 2 specific recombinant human IgE clones H10, H12, P4E (human) (UniProt P01854); assay: RBL-SX38 IgE displacement, FACS
Sequence (P01854 other isoform, or with tags, fused parts or gaps): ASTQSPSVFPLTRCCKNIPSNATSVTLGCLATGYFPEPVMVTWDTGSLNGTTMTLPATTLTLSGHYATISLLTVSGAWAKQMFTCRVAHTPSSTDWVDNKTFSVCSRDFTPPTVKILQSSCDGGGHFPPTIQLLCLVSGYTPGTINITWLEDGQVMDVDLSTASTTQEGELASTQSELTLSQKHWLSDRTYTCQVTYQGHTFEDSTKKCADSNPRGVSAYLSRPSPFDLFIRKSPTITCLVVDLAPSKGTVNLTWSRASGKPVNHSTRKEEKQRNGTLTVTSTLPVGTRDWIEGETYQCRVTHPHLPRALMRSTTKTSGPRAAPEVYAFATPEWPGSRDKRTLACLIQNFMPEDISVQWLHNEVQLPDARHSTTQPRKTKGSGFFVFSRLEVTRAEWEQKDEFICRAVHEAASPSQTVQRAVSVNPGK

Max effect/effect 1 µM [%] | EC50 [nM] | Binder
0 | – | B1
99 | 0.7 | B2
48 | 34.8 | B3
75 | 21.2 | B4
67 | 28.9 | B5
19 | – | B6
